How the values were obtained:
[1] = target: native FGFR2-IIIc on rat prostate cancer cell line AT3B-1 (rat) (UniProt F1LNW0); assay: flow cytometry on AT3B-1 cells; no-primary control 11%
[2] = target: native FGFR2-IIIc on rat prostate cancer cell line AT3B-1 (rat) (UniProt F1LNW0); assay: flow cytometry on rat prostate cancer cell line AT3B-1; marker M1 9-7844, 1840 of 15000 events; the panel without primary antibody also prints 12.27

- % positive staining of the cell population [1]: 12%
- %Gated (marker M1) [2]: 12.3%
Substance: human IgG (negative control) (antibody)

Reference: US20130142802A1
